Common to all, as to assay: cell-based or functional assay
Experiment [1] deals with T1, CD22 (UniProt P20273 20-847, limits assumed).
Experiment [2] has as its target T1, CD22. This is another data set of the same source.
Experiment [3] has as its target T1, CD22. This is another data set of the same source.
In experiment [4] the target is T1, CD22. The source holds these as a separate data set.
Experiment [5] addresses T1, CD22. The source holds these as a separate data set.
Experiment [6] concerns the target T1, CD22. The source holds these as a separate data set.

Where two headings read alike, the source gives them in different places.

B1: anti-CD22 (clone hLL2) Fab CTBV3 switch (3 GGGGS linker) (Fab)
light: DIQLTQSPSSLSASVGDRVTMSCKSSQSVLYSANHKNYLAWYQQKPGKAPKLLIYWASTRESGVPSRFSGSGSGTDFTFTISSLQPEDIATYYCHQYLSSWTFGGGTKLEIKRTVAAPSVFIFPPSDEQLKSGTASVVCLLNNFYPREAKVQWKVDNALQSGNSQESVTEQDSKDSTYSLSSTLTLSKADYEKHKVYACEVTHQGLSSPVTKSFNRGECGGGGSGGGGSGGGGSNYHLENEVARLKKL
heavy: QVQLVQSGAEVKKPGSSVKVSCKASGYTFTSYWLHWVRQAPGQGLEWIGYINPRNDYTEYNQNFKDKATITADESTNTAYMELSSLRSEDTAFYFCARRDITTFYWGQGTTVTVSSARTKGPSVFPLAPSSKSTSGGTAALGCLVKDYFPEPVTVSWNSGALTSGVHTFPAVLQSSGLYSLSSVVTVPSSSLGTQTYICNVNHKPSNTKVDKKVEPKSCGGGGSGGGGSGGGGSNYHLENEVARLKKL
As to B1, in experiment [1], the “cytotoxicity at 0.01 pM” value turned out to be 2.54, the “cytotoxicity at 0.1 pM” value was found to be 7.9, the “cytotoxicity at 10 pM” value was 17 and the “cytotoxicity at 100 pM” value stood at 51.3. Further, in experiment [1], the “cytotoxicity at 1000 pM” value turned out to be 45.3 and the “cytotoxicity at 10000 pM” value amounted to 41.5. Further, the EC50 of cytotoxicity in experiment [2] was 14.9 pM.

B2: anti-CD22 (clone hLL2) IgG HCCT switch (antibody)
light: DIQLTQSPSSLSASVGDRVTMSCKSSQSVLYSANHKNYLAWYQQKPGKAPKLLIYWASTRESGVPSRFSGSGSGTDFTFTISSLQPEDIATYYCHQYLSSWTFGGGTKLEIKRTVAAPSVFIFPPSDEQLKSGTASVVCLLNNFYPREAKVQWKVDNALQSGNSQESVTEQDSKDSTYSLSSTLTLSKADYEKHKVYACEVTHQGLSSPVTKSFNRGEC
heavy: QVQLVQSGAEVKKPGSSVKVSCKASGYTFTSYWLHWVRQAPGQGLEWIGYINPRNDYTEYNQNFKDKATITADESTNTAYMELSSLRSEDTAFYFCARRDITTFYWGQGTTVTVSSARTKGPSVFPLAPSSKSTSGGTAALGCLVKDYFPEPVTVSWNSGALTSGVHTFPAVLQSSGLYSLSSVVTVPSSSLGTQTYICNVNHKPSNTKVDKKVEPKSCDKTHTCPPCPAPPVAGPSVFLFPPKPKDTLMISRTPEVTCVVVDVSHEDPEVKFNWYVDGVEVHNAKTKPREEQYNSTYRVVSVLTVLHQDWLNGKEYKCKVSNKGLPSSIEKTISKAKGQPREPQVYTLPPSRDELTKNQVSLTCLVKGFYPSDIAVEWESNGQPENNYKTTPPVLDSDGSFFLYSKLTVDKSRWQQGNVFSCSVMHEALHNHYTQKSLSLSPGKGGGGSNYHLENEVARLKKL
Molecule B2 gave an EC50 of cytotoxicity in experiment [3] of 15.3 pM. In experiment [4], the “cytotoxicity at 0.06 pM” value worked out at 0.25, the “cytotoxicity at 0.30 pM” value was -1.05, the “cytotoxicity at 1.52 pM” value is -4.45 and the “cytotoxicity at 7.62 pM” value is 8.18. Besides, in experiment [4], the “cytotoxicity at 38.10 pM” value was 20.9, the “cytotoxicity at 190.48 pM” value was 31.8 and the “cytotoxicity at 4762.00 pM” value came to 24.1.

B3: anti-CD22 (clone hLL2) Fab CTBV2 switch (2 GGGGS linker) (Fab)
light: DIQLTQSPSSLSASVGDRVTMSCKSSQSVLYSANHKNYLAWYQQKPGKAPKLLIYWASTRESGVPSRFSGSGSGTDFTFTISSLQPEDIATYYCHQYLSSWTFGGGTKLEIKRTVAAPSVFIFPPSDEQLKSGTASVVCLLNNFYPREAKVQWKVDNALQSGNSQESVTEQDSKDSTYSLSSTLTLSKADYEKHKVYACEVTHQGLSSPVTKSFNRGECGGGGSGGGGSNYHLENEVARLKKL
heavy: QVQLVQSGAEVKKPGSSVKVSCKASGYTFTSYWLHWVRQAPGQGLEWIGYINPRNDYTEYNQNFKDKATITADESTNTAYMELSSLRSEDTAFYFCARRDITTFYWGQGTTVTVSSARTKGPSVFPLAPSSKSTSGGTAALGCLVKDYFPEPVTVSWNSGALTSGVHTFPAVLQSSGLYSLSSVVTVPSSSLGTQTYICNVNHKPSNTKVDKKVEPKSCGGGGSGGGGSNYHLENEVARLKKL
B3: in experiment [1], the “cytotoxicity at 0.01 pM” value worked out at 7.08, the “cytotoxicity at 0.1 pM” value stood at 2.9, the “cytotoxicity at 10 pM” value was found to be 22.1 and the “cytotoxicity at 100 pM” value came to 45.8. In experiment [1], the “cytotoxicity at 1000 pM” value came to 45.8 and the “cytotoxicity at 10000 pM” value came out at 46. For the same molecule, in experiment [2], the EC50 of cytotoxicity amounted to 12.7 pM.

B4: anti-CD22 (clone hLL2) Fab HCCT switch (Fab, V domains shown)
VH: QVQLVQSGAEVKKPGSSVKVSCKASGYTFTSYWLHWVRQAPGQGLEWIGYINPRNDYTEYNQNFKDKATITADESTNTAYMELSSLRSEDTAFYFCARRDITTFYWGQGTTVTVSS
VL: DIQLTQSPSSLSASVGDRVTMSCKSSQSVLYSANHKNYLAWYQQKPGKAPKLLIYWASTRESGVPSRFSGSGSGTDFTFTISSLQPEDIATYYCHQYLSSWTFGGGTKLEIKR
For B4, in experiment [5], the EC50 of cytotoxicity was determined as 1340 pM. In experiment [6], the “cytotoxicity at 0.01 pM” value was determined as 1.3, the “cytotoxicity at 0.1 pM” value was 6.05, the “cytotoxicity at 1 pM” value was determined as 7.67 and the “cytotoxicity at 10 pM” value was 8.27. Moreover, in experiment [6], the “cytotoxicity at 100 pM” value was 7.35, the “cytotoxicity at 1000 pM” value was 25 and the “cytotoxicity at 10000 pM” value was found to be 45.1.

B5: anti-CD22 (clone hLL2) Fab LCNT switch (Fab, V domains shown)
VH: B4 VH
VL: B4 VL
Turning to B5, the EC50 of cytotoxicity in experiment [5] was 6560 pM.

B6: anti-CD22 (clone hLL2) Fab NTBV switch (Fab, V domains shown)
VH: B4 VH
VL: B4 VL
B6 had an EC50 of cytotoxicity in experiment [5] of 135 pM. Besides, in experiment [6], the “cytotoxicity at 0.01 pM” value was 1.52, the “cytotoxicity at 0.1 pM” value is 2.19, the “cytotoxicity at 1 pM” value was determined as 4.2 and the “cytotoxicity at 10 pM” value was 2.07. In experiment [6], the “cytotoxicity at 1000 pM” value was -2.07 and the “cytotoxicity at 10000 pM” value stood at 1.5.

B7: anti-CD22 (clone hLL2) IgG LCCT switch (antibody)
light: DIQLTQSPSSLSASVGDRVTMSCKSSQSVLYSANHKNYLAWYQQKPGKAPKLLIYWASTRESGVPSRFSGSGSGTDFTFTISSLQPEDIATYYCHQYLSSWTFGGGTKLEIKRTVAAPSVFIFPPSDEQLKSGTASVVCLLNNFYPREAKVQWKVDNALQSGNSQESVTEQDSKDSTYSLSSTLTLSKADYEKHKVYACEVTHQGLSSPVTKSFNRGECGGGGSNYHLENEVARLKKL
heavy: QVQLVQSGAEVKKPGSSVKVSCKASGYTFTSYWLHWVRQAPGQGLEWIGYINPRNDYTEYNQNFKDKATITADESTNTAYMELSSLRSEDTAFYFCARRDITTFYWGQGTTVTVSSARTKGPSVFPLAPSSKSTSGGTAALGCLVKDYFPEPVTVSWNSGALTSGVHTFPAVLQSSGLYSLSSVVTVPSSSLGTQTYICNVNHKPSNTKVDKKVEPKSCDKTHTCPPCPAPPVAGPSVFLFPPKPKDTLMISRTPEVTCVVVDVSHEDPEVKFNWYVDGVEVHNAKTKPREEQYNSTYRVVSVLTVLHQDWLNGKEYKCKVSNKGLPSSIEKTISKAKGQPREPQVYTLPPSRDELTKNQVSLTCLVKGFYPSDIAVEWESNGQPENNYKTTPPVLDSDGSFFLYSKLTVDKSRWQQGNVFSCSVMHEALHNHYTQKSLSLSPGK
Molecule B7 showed an EC50 of cytotoxicity in experiment [3] of 26.9 pM. Further, in experiment [4], the “cytotoxicity at 0.06 pM” value was -2.8, the “cytotoxicity at 0.30 pM” value is -7.88, the “cytotoxicity at 1.52 pM” value is -6.59 and the “cytotoxicity at 7.62 pM” value is 0.95. In experiment [4], the “cytotoxicity at 38.10 pM” value was 14.1, the “cytotoxicity at 190.48 pM” value was determined as 24.4, the “cytotoxicity at 952.40 pM” value stood at 25.4 and the “cytotoxicity at 4762.00 pM” value was determined as 28.5.

B8: anti-CD22 (clone hLL2) Fab LCCT switch (Fab)
light: B7 light
heavy: QVQLVQSGAEVKKPGSSVKVSCKASGYTFTSYWLHWVRQAPGQGLEWIGYINPRNDYTEYNQNFKDKATITADESTNTAYMELSSLRSEDTAFYFCARRDITTFYWGQGTTVTVSSARTKGPSVFPLAPSSKSTSGGTAALGCLVKDYFPEPVTVSWNSGALTSGVHTFPAVLQSSGLYSLSSVVTVPSSSLGTQTYICNVNHKPSNTKVDKKVEPKSC
B8: the EC50 of cytotoxicity in experiment [5] was determined as 132 pM. In addition, in experiment [6], the “cytotoxicity at 0.01 pM” value is -2.13, the “cytotoxicity at 0.1 pM” value is -0.84, the “cytotoxicity at 1 pM” value is -0.01 and the “cytotoxicity at 10 pM” value was determined as 4.8. For the same molecule, in experiment [6], the “cytotoxicity at 100 pM” value was 23.8, the “cytotoxicity at 1000 pM” value is 49.6 and the “cytotoxicity at 10000 pM” value amounted to 56.5.

B9: anti-CD22 (clone hLL2) IgG CTBV switch (antibody)
light: B7 light
heavy: B2 heavy
For B9, the EC50 of cytotoxicity in experiment [3] was found to be 34.7 pM. Moreover, in experiment [4], the “cytotoxicity at 0.06 pM” value turned out to be 4.45, the “cytotoxicity at 0.30 pM” value was -3.82, the “cytotoxicity at 1.52 pM” value came to 5.34 and the “cytotoxicity at 7.62 pM” value was determined as 7.92. Further, in experiment [4], the “cytotoxicity at 190.48 pM” value stood at 29.8, the “cytotoxicity at 952.40 pM” value is 28.6 and the “cytotoxicity at 4762.00 pM” value was determined as 38.
